Our source for the IC50, % Adhesion Inhibition and bound cells (raw fluorescence) values is patent publication US20020103111A1, “Inhibitors of MAdCAM-1-mediated interactions and methods of use therefor” (Millennium Pharmaceuticals, Inc., priority 1996, published 2002).

Square brackets hold non-standard residues; d marks the D form. Ends that are not written are not given here. NMeL = CN[C@@H](CC(C)C)C(=O)O

By IC50 is commonly meant the point on the concentration scale where inhibition reaches its midpoint.

One assay deals with human α4β7 integrin (human) (UniProt P13612). As to the kind of experiment: inhibition of HUT 78 cell adhesion to murine MAdCAM-1/mCk.
Take Pca-Asp-Thr (peptide): the IC50 was 11 µM. This lies in the double-digit micromolar range.

The substance 2-Anc-Leu-Asp-Thr-Ser-Leu (peptide) came in with an IC50 of 5.4 µM.

Turning to Ac-[NMeL]LDTSL, the half-inhibitory concentration (IC50) amounted to 1320 µM.

Regarding Cpc-Asp-Thr-Ser-Leu (peptide), the IC50 was determined as 8.9 µM.

For Pba-Asp-Thr (peptide), the half-inhibitory concentration (IC50) was 13.5 µM.

With Dphb-Leu-Asp-Thr-Ser-Leu (peptide), the IC50 worked out at 15 µM.

In turn, Pba-Asp-Thr-Ser-Leu (peptide) displayed a half-inhibitory concentration (IC50) of 13.3 µM.

In the case of Pca-Leu-Asp-Thr-Ser-Leu (peptide), the IC50 came to 2.1 µM.

The substance [NMeL]LDTSL displayed an IC50 of 256 µM.

“Pba-Leu-Asp-Thr-Ser-Leu (00789-1A) (peptide)” gave a concentration for half-maximal inhibition (IC50) of 4 µM. This IC50 lies about 64-fold lower than the previous one.

Ac-MeLeu-Asp-Thr-Ser-Leu (peptide) came in with an IC50 of 150 µM.

The next assay has the same target. The assay is described as follows: inhibition of HUT 78 cell adhesion to murine MAdCAM-1/mCk at 100 µM.
With Pba-Asp-Thr (peptide), the % Adhesion Inhibition came out at 100%.

Pba-Asp-Thr-Ser-Leu (peptide) gave a % Adhesion Inhibition of 100%.

The next assay shares this target. As to the kind of experiment: inhibition of HUT 78 cell adhesion to murine MAdCAM-1/mCk at 500 µM.
Substance Ac-Lle-Asp-Thr-Ser-Leu (peptide) yielded a % Adhesion Inhibition of 17%.

Ac-WRGLDTSLGS had a % Adhesion Inhibition of 71%.

Ac-RGLDTSLG registered a % Adhesion Inhibition of 75%.

In turn, NH2-Leu-Asp-Thr-Ser-Leu (peptide) returned a % Adhesion Inhibition of 22%.

In turn, H-HWRGLDTSLGSV showed a % Adhesion Inhibition of 80%.

Consider Ac-[NMeL]LDTSL, for which the % Adhesion Inhibition worked out at 28%.

Substance Ac-HWRGLDTSLGSV yielded a % Adhesion Inhibition of 71%.

As for Ac-RVHWRGLDTSLGSVQ, the % Adhesion Inhibition was 88%.

In turn, H-WRGLDTSLGS had a % Adhesion Inhibition of 76%.

As to [NMeL]LDTSL, the % Adhesion Inhibition is 54%.

Substance H-RVHWRGLDTSLGSVQ came in with a % Adhesion Inhibition of 90%.

A further assay shares this target. The assay is described as follows: RPMI 8866 adhesion to chimera on Protein A; neat; after control MAb 2G7.
With “human MAdCAM-1-IgG chimera (huMAdCAM-1-Ig, construct HuMAdIg21) (from UniProt P01857 1-330) (Fc fusion)”, the bound cells (raw fluorescence) stood at 196000.
